We go through 83 variants from the RNAGym collection of RNA variant scans (doi:10.1093/molbev/msab373).

The labels stand for the following.
B1: Azoarcus group I ribozyme (parent)
chain: GUGCCUUGCGCCGGGAAACCACGCAAGGGAUGGUGUCAAAUUCGGCGAAACCUAAGCGCCCGCCCGGGCGUAUGGCAACGCCGAGCCAAGCUUCGGCGCCUGCGCCGAUGAAGGUGUAGAGACUAGACGGCACCCACCUAAGGCAAACGCUAUGGUGAAGGCAUAGUCCAGGGAGUGGCGAAAGUCACACAAACCGG

The series covers variants of B1. The experiment in a line: reverse-splicing fitness (ratio to wild type); higher = more active; in vitro selection; Mg2+ level not given. Put shortly:
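An in vitro group I ribozyme library with randomized positions was T7-transcribed and gel-purified. In triplicate, 10 pmol RNA in EPPS pH 7.5 was reacted with 50 pmoles of a 30-nt RNA substrate for 1 h at 37 °C across several added MgCl2 levels (1–48 mM), then stopped with EDTA. Products were reverse transcribed from a substrate-complementary primer, PCR-amplified and sequenced (HiSeq 4000). Fitness is a variant's read proportion after selection over that before, normalised to wild type.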
Turning to C82A A111C A145C C150U C169G, the reverse-splicing fitness stood at 0.0076. For C82A A111C A145C C150U C169A, the reverse-splicing fitness amounted to 0.00801.

On to C82A A111C A145C C150U C169U, for which the reverse-splicing fitness came out at 0.0121. With C82A A111C C150G C169G U176A the figure was 0.00718.

On to C82A A111C C150G C169G U176C, for which the reverse-splicing fitness was 0.00508. With C82A A111C C150G C169G U176G the figure was 0.00585. The value for C82A A111C A145G C150U C169U U176A was 0.0138. The value for C82A A111C A145G C150U C169U U176C was 0.0143; that for C82A A111C A145G C150U C169U U176G was 0.00766.

Regarding C82A A111C A145U U176C, the reverse-splicing fitness came out at 0.0939.

C82A A111C A145U U176G: the reverse-splicing fitness stood at 0.0235. With C82A A111C A145U U176A, the reverse-splicing fitness amounted to 0.073. In the case of C82A A111C A145G C150A U176A, the reverse-splicing fitness was 0.0153. With C82A A111C A145G C150A U176C the figure was 0.0335; with C82A A111C A145G C150A U176G, 0.00922. For C82A A111C A120U C169U U176G, the reverse-splicing fitness came to 0.00199. In the case of C82A A111C A120U C169U U176A, the reverse-splicing fitness is 0.00613. With C82A A111C A120U C169U U176C the figure was 0.00626. The value for C82A A111C A120U A145U C169U U176C was 0.00253.

On to C82A A111C A120U A145U C169U U176G, for which the reverse-splicing fitness is 0.002. The value for C82A A111C A120U A145U C169U U176A was 0.00262; that for C82A A111C A145C C150A C169A was 0.00835. As to C82A A111C A145C C150A C169U, the reverse-splicing fitness amounted to 0.00921.

In the case of C82A A111C A145C C150A C169G, the reverse-splicing fitness turned out to be 0.0093. The value for C82A A111C A120U C150U C169A U176A was 0.00537; that for C82A A111C A120U C150U C169A U176C was 0.00323; that for C82A A111C A120U C150U C169A U176G was 0.00324. Consider C82A A111C A145U C169G, for which the reverse-splicing fitness is 0.0101. For C82A A111C A145U C169U, the reverse-splicing fitness was found to be 0.0124. As to C82A A111C A145U C169A, the reverse-splicing fitness was determined as 0.0078. On to C82A A111C A145U C150G U176C, for which the reverse-splicing fitness came out at 0.0161. The value for C82A A111C A145U C150G U176A was 0.00919. C82A A111C A145U C150G U176G: the reverse-splicing fitness is 0.00428. The value for C82A A111C C150A C169A U176G was 0.00857; that for C82A A111C C150A C169A U176C was 0.0237; that for C82A A111C C150A C169A U176A was 0.0188. The value for C82A A111C A145G C169U U176C was 0.0149; that for C82A A111C A145G C169U U176G was 0.0073; that for C82A A111C A145G C169U U176A was 0.0177. The value for C82A A111C A120U C150G C169U was 0.00639; that for C82A A111C A120U C150G C169A was 0.00857; that for C82A A111C A120U C150G C169G was 0.0061.

On to C82A A111C A120U C150U C169G U176C, for which the reverse-splicing fitness was 0.00483.

In the case of C82A A111C A120U C150U C169G U176G, the reverse-splicing fitness was determined as 0.00288.

Turning to C82A A111C A120U C150U C169G U176A, the reverse-splicing fitness is 0.00669.

For the variant C82A A111C A145G C150U C169A U176C, the reverse-splicing fitness was 0.0148. Consider C82A A111C A145G C150U C169A U176G, for which the reverse-splicing fitness came to 0.00833. In the case of C82A A111C A145G C150U C169A U176A, the reverse-splicing fitness was found to be 0.0141. The value for C82A A111C A145G C150A C169A U176G was 0.0091; that for C82A A111C A145G C150A C169A U176A was 0.0172; that for C82A A111C A145G C150A C169A U176C was 0.0191. With C82A A111C A120U C150A C169U U176A the figure was 0.00806.

Turning to C82A A111C A120U C150A C169U U176C, the reverse-splicing fitness came to 0.00458. As to C82A A111C A120U C150A C169U U176G, the reverse-splicing fitness is 0.00284. Take C82A A111C A145G C150G: the reverse-splicing fitness turned out to be 0.0238. Regarding C82A A111C A145G C150A, the reverse-splicing fitness was determined as 0.0316. C82A A111C A145G C150U: the reverse-splicing fitness came to 0.174. On to C82A A111C A145C C150U C169U U176C, for which the reverse-splicing fitness was found to be 0.0108. In the case of C82A A111C A145C C150U C169U U176A, the reverse-splicing fitness is 0.0133. The value for C82A A111C A145C C150U C169U U176G was 0.00776; that for C82A A111C A145U C150U U176C was 0.0623; that for C82A A111C A145U C150U U176A was 0.0486.

Take C82A A111C A145U C150U U176G: the reverse-splicing fitness stood at 0.0141. As for C82A A111C A145G C150G C169G U176G, the reverse-splicing fitness amounted to 0.00568. The value for C82A A111C A145G C150G C169G U176C was 0.0128.

For the variant C82A A111C A145G C150G C169G U176A, the reverse-splicing fitness amounted to 0.00988.

With C82A A111C A145C C169U U176G, the reverse-splicing fitness was found to be 0.00646. For C82A A111C A145C C169U U176A, the reverse-splicing fitness is 0.0142. The value for C82A A111C A145C C169U U176C was 0.0138. With C82A A111C A120U C150G the figure was 0.00737; with C82A A111C A120U C150U, 0.0167. As for C82A A111C A120U C150A, the reverse-splicing fitness is 0.00696. The value for C82A A111C A145C C150G C169A was 0.00764; that for C82A A111C A145C C150G C169G was 0.00663; that for C82A A111C A145C C150G C169U was 0.0102. With C82A A111C A145C C169A U176G the figure was 0.00693; with C82A A111C A145C C169A U176C, 0.00942. With C82A A111C A145C C169A U176A, the reverse-splicing fitness was 0.0135. Regarding C82A A111C A145C C150U U176G, the reverse-splicing fitness is 0.00993. With C82A A111C A145C C150U U176C, the reverse-splicing fitness came to 0.0355. As to C82A A111C A145C C150U U176A, the reverse-splicing fitness was found to be 0.0236. As for C82A A111C A145G C150U U176C, the reverse-splicing fitness is 0.086. Turning to C82A A111C A145G C150U U176A, the reverse-splicing fitness was 0.0494.
